Source: patent US20260265358A1 (BYOMASS, published 2026)

T1: Human GDNF (human, UniProt P39905 78-211)
T1 sequence (looked up): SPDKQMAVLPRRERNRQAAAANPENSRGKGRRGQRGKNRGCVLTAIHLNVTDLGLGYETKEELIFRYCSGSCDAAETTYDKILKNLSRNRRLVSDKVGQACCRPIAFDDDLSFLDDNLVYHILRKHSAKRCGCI

T2: BMP9 (UniProt Q9UK05 320-429)
T2 sequence (looked up): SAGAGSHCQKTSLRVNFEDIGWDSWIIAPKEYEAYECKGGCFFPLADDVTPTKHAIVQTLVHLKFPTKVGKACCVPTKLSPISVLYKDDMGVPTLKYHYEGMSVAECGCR

T3: Human GDF10 (human, UniProt P55107 369-478)
T3 sequence (looked up): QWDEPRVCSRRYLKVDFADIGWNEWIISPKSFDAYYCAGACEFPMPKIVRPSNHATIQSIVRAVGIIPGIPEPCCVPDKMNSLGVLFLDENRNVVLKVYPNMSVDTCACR

T4: Activin B (UniProt P09529 293-407)
T4 sequence (looked up): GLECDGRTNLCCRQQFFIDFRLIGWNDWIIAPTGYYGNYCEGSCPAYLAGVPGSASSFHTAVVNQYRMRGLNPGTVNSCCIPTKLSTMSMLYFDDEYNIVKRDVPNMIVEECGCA

T5: GDF15 Fc (UniProt Q99988 197-308, limits assumed)
T5 construct: not shown: Fc part
T5 sequence (looked up): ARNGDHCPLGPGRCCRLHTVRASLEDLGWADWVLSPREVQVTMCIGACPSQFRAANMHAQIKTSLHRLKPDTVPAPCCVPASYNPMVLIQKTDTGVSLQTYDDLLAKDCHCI

T6: BMP10 (UniProt O95393 317-424)
T6 sequence (looked up): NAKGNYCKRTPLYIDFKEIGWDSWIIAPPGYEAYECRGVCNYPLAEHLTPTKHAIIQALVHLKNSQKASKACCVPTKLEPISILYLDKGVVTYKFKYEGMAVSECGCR

T7: Human Activin A Fc (human, UniProt P03970 309-424 (pig entry))
T7 construct: also called human Activin A-Fc fusion; human Activin A-Fc antigen; not shown: Fc part
T7 sequence: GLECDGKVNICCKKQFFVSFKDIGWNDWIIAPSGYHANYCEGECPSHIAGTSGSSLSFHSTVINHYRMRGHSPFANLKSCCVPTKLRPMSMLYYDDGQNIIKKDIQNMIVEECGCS

T8: Activin A (ligand of the Activin 2B Receptor/SMAD reporter assay) (UniProt P08476 311-426)
T8 sequence (looked up): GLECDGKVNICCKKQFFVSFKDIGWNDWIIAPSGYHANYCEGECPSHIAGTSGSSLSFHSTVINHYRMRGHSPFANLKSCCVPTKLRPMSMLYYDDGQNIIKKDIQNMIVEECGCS


Assays:
[1] = target: T1, Human GDNF; assay: Octet BLI, IgG, avid
[2] = target: T2, BMP9; assay: Octet BLI, IgG, avid
[3] = target: T3, Human GDF10; assay: Octet BLI, IgG, avid
[4] = target: T4, Activin B; assay: Octet BLI, IgG, avid
[5] = target: T5, GDF15 Fc; assay: Octet BLI, IgG, avid
[6] = target: Human GDF8 (human, UniProt O14793 267-375); assay: Octet BLI, IgG, avid
[7] = target: Human GDF11 (human, UniProt O95390 299-407); assay: Octet BLI, IgG, avid
[8] = target: T6, BMP10; assay: Octet BLI, IgG, avid
[9] = target: T7, Human Activin A Fc; assay: Octet BLI, IgG, avid
Method: ForteBio affinity measurements were performed on an Octet HTX generally as previously described (see, e.g., Estep et al, Mabs 5(2), 270-278 (2013)). Briefly, ForteBio affinity measurements were performed by loading IgGs on-line onto AHC sensors. Sensors were equilibrated off-line in assay buffer for 30 min and then monitored on-line for 60 seconds for baseline establishment. Sensors with loaded IgGs were exposed to 100 nM antigen for 3 minutes, and afterwards were transferred to assay buffer for 3 min for off-rate measurement. All kinetics were analyzed using the 1:1 binding model.
Binding affinity and epitope binning assays were performed with a ForteBio instrument as described herein.

[10] = target: T8, Activin A (ligand of the Activin 2B …); assay: cell-based or functional assay
[11] = target: T4, Activin B; assay: cell-based or functional assay

Chain of Human GDF11 (O95390 299-407 limits assumed): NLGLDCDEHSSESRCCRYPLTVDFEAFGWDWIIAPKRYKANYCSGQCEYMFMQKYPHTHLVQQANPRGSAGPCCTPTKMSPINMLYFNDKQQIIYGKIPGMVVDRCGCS

Binder | binding result [1] | binding result [2] | binding result [3] | binding result [4] | binding result [5] | binding result [6] | binding result [7] | binding result [8] | Kd [9] | Activin A-ActRIIB SMAD IC50 pM [10] | Kd [4] | Activin B-ActRIIB SMAD IC50 pM [11] | Kd [7]
anti-Activin A antibody Clone R (IgG) (antibody, V domains shown, IgG format; also called Antibody R) VH: QVQLVQSGAEVKKPGSSVKVSCKASGGSFSPYTISWVRQAPGQGLEWMGGIILTSGTANYAQKFQGRVTITADESTSTAYMELSSLRSEDTAVYYCARGGPLSGWRASYYYWGQGTLVTVSS VL: not shown | no binding (tested: 100 nM antigen) | no binding (tested: 100 nM antigen) | no binding (tested: 100 nM antigen) | no binding (tested: 100 nM antigen) | no binding (tested: 100 nM antigen) | no binding (tested: 100 nM antigen) | no binding (tested: 100 nM antigen) | no binding (tested: 100 nM antigen) | 0.6 nM |  |  |  | 
anti-Activin A antibody Clone M (IgG) (antibody, V domains shown, IgG format; also called Antibody M) VH: QLQLQESGPGLVKPSETLSLTCTVSGGSISSSDYYWGWIRQPPGKGLEWIGSIYYPANTYYNPSLKSRVTISVDTSKNQFSLKLSSVTAADTAVYYCARGYWNYGMDVWGQGTTVTVSS VL: not shown | no binding (tested: 100 nM antigen) | no binding (tested: 100 nM antigen) | no binding (tested: 100 nM antigen) |  | no binding (tested: 100 nM antigen) | no binding (tested: 100 nM antigen) | no binding (tested: 100 nM antigen) | no binding (tested: 100 nM antigen) | 1 nM | 719 pM | 9.58 nM |  | 
anti-Activin A antibody Clone N (IgG) (antibody, V domains shown, IgG format; also called Antibody N) VH: QLQLQESGPGLVKPSETLSLTCTVSGGSISSSDYYWGWIRQPPGKGLEWIGSIYYPASTYYNPSLKSRVTISVDTSKNQFSLKLSSVTAADTAVYYCARGYWNYGMDVWGQGTTVTVSS VL: not shown | no binding (tested: 100 nM antigen) | no binding (tested: 100 nM antigen) | no binding (tested: 100 nM antigen) |  | no binding (tested: 100 nM antigen) | no binding (tested: 100 nM antigen) | no binding (tested: 100 nM antigen) | no binding (tested: 100 nM antigen) | 1.26 nM | 241 pM | 6.98 nM |  | 
anti-Activin A antibody Clone C (IgG) (antibody, V domains shown, IgG format) VH: QVQLVQSGAEVKKPGASVKVSCKASGYTFPGYHMHWVRQAPGQGLEWMGVINPSSGDTNYAQKFQGRVTMTRDTSISTAYMELSRLRSDDTAVYYCARARDIAALGLGAFDYWGQGTLVTVSS VL: EIVLTQSPGTLSLSPGERATLSCRASQSVSSSYLAWYQQKPGQAPRLLIYGASSRAGGIPDRFSGSGSGTDFTLTISRLEPEDFAVYYCQQYVAYPRTFGGGTKVEIKR | no binding (tested: 100 nM antigen) | no binding (tested: 100 nM antigen) | no binding (tested: 100 nM antigen) |  | no binding (tested: 100 nM antigen) | no binding (tested: 100 nM antigen) |  | no binding (tested: 100 nM antigen) | 0.477 nM |  | 148 nM | > 100000 pM | 12.7 nM
anti-Activin A antibody Clone D (IgG) (antibody, V domains shown, IgG format; also called Antibody D) VH: QVQLVQSGAEVKKPGASVKVSCKASGYTFFGYSMHWVRQAPGQGLEWMGVINPSSGDTNYAQKFQGRVTMTRDTSISTAYMELSRLRSDDTAVYYCARARDIAALGLGAFDYWGQGTLVTVSS VL: not shown | no binding (tested: 100 nM antigen) | no binding (tested: 100 nM antigen) | no binding (tested: 100 nM antigen) |  | no binding (tested: 100 nM antigen) | no binding (tested: 100 nM antigen) |  | no binding (tested: 100 nM antigen) | 0.515 nM |  | 153 nM |  | 23.4 nM
anti-Activin A antibody Clone J (IgG) (antibody, V domains shown) VH: EVQLVQSGAEVKKPGSSVKVSCKASGGTFSLYAISWVRQAPGQGLEWMGGIIPYFGTANYAQKFQGRVTITADESTSTAYMELSSLRSEDTAVYYCARGGSGYSTSWGSSLYWGQGTLVTVSS VL: EIVLTQSPGTLSLSPGERATLSCRASQSVSSSYLAWYQQKPGQAPRLLIYGAFSRATGIPDRFSGSGSGTDFTLTISRLEPEDFAVYYCQQSGVFPYTFGGGTKVEIKR |  |  |  |  |  |  |  |  |  | 41.7 pM |  |  | 
anti-Activin A antibody Clone O (IgG) (antibody, V domains shown, IgG format; also called Antibody O) VH: QVQLVQSGAEVKKPGSSVKVSCKASGGTFSNYDINWVRQAPGQGLEWMGGIIPVFGTAAYAQKFQGRVTITADESTSTAYMELSSLRSEDTAVYYCAREARDGYRYAFQHWGQGTLVTVSS VL: not shown | no binding (tested: 100 nM antigen) | no binding (tested: 100 nM antigen) | no binding (tested: 100 nM antigen) | no binding (tested: 100 nM antigen) | no binding (tested: 100 nM antigen) | no binding (tested: 100 nM antigen) | no binding (tested: 100 nM antigen) | no binding (tested: 100 nM antigen) | 0.442 nM | 5400 pM |  |  | 
anti-Activin A antibody Clone F (IgG) (antibody, V domains shown, IgG format; also called Antibody F) VH: QVQLVQSGAEVKKPGASVKVSCKASGYTFTGYHIHWVRQVPGQGLEWMGVISAYSGDTNYAQKLQGRVTMTTDTSTSTAYMELRSLRSDDTAVYYCARARDIAALGLGAFDYWGQGTLVTVSS VL: EIVLTQSPATLSVSPGERATLSCRASQSVSSNLAWYQQKPGQAPRLLIYGASDRATGIPARFSGSGSGTEFTLTISSLQSEDFAVYYCIQYSNYPRTFGGGTKVEIKR | no binding (tested: 100 nM antigen) | no binding (tested: 100 nM antigen) | no binding (tested: 100 nM antigen) |  | no binding (tested: 100 nM antigen) | no binding (tested: 100 nM antigen) |  | no binding (tested: 100 nM antigen) | 0.492 nM |  | 80.1 nM | 24900 pM | 18.7 nM
anti-Activin A antibody Clone P (IgG) (antibody, V domains shown, IgG format; also called Antibody P) VH: QVQLVQSGAEVKKPGSSVKVSCKASGGTFDDYAISWVRQAPGQGLEWMGGIIPRFGIANYAQKFQGRVTITADESTSTAYMELSSLRSEDTAVYYCARPPSSGSDWGQGTLVTVSS VL: DIQMTQSPSSVSASVGDRVTITCRASQGIDSWLAWYQQKPGKAPKLLIYAASSLQSGVPSRFSGSGSGTDFTLTISSLQPEDFATYYCQQVHSFPITFGGGTKVEIKR | no binding (tested: 100 nM antigen) | no binding (tested: 100 nM antigen) | no binding (tested: 100 nM antigen) |  | no binding (tested: 100 nM antigen) | no binding (tested: 100 nM antigen) | no binding (tested: 100 nM antigen) | no binding (tested: 100 nM antigen) | 1.28 nM |  |  |  | 
